One test addresses T1, huGIPR ECD (human, UniProt P48546 22-139, limits assumed).
T1 construct: Soluble ECD injected in the MASS-1 assay; also called human GIPR extracellular domain
T1 sequence: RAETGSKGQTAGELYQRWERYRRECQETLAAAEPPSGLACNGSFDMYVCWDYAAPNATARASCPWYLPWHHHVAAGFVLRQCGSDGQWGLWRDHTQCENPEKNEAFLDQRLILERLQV
As to the kind of experiment: SPR (MASS-1), captured mAb, 200 nM huGIPR ECD.

A further test addresses T2, Rhesus GIPR (rhesus, UniProt F7E1R9 22-466).
T2 sequence: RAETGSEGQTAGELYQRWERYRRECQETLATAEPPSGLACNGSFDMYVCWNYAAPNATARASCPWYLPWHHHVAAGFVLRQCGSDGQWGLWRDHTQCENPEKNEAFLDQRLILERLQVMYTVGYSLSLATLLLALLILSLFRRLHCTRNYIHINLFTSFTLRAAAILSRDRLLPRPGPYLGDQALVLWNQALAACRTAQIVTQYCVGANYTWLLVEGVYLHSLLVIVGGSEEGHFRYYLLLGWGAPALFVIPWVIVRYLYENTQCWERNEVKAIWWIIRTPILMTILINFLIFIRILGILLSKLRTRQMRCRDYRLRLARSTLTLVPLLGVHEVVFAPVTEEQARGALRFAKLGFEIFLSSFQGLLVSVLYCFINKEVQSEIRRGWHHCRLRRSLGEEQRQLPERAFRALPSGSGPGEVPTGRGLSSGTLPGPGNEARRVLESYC
As to the kind of experiment: cell-based or functional assay.

Test [1] concerns the target T3, human GIPR transiently expressed on 293T cells (human, UniProt P48546 22-466).
T3 sequence: T2 sequence with E7K, T31A, N51D, T160M, V186A, I226L, L365F, G422S, R438S, V440E
As to the kind of experiment: cell-based or functional assay.

Changes are numbered by the printed parent chain.

Procedure for huGIPR ECD: Binding assays were carried out on the immobilized goat anti-huFc antibody surface by MASS-1. The experiment was performed at 25° C. The instrument running buffer was 0.005% P20/PBS. The goat anti-huFc capture antibody was covalently attached to the sensor chip surface via standard amine coupling to flow cells channel 1-8/A&B. The anti-huGIPR antibodies were diluted in sample buffer (0.1 mg/mL BSA, 0.005% P20, PBS) to 10 nM then captured to flow cells channel B. Channel A was as a blank reference surface without injection of anti-huGIPR antibody. The captured response range of channel B was ˜100-400 RU. Then 200 nM huGIPR ECD was injected over the goat anti-huFc antibody captured anti-huGIPR antibody surfaces at flow rate 25 μL/min for 3 minutes. After a 6 minute dissociation, each surface was regenerated by injecting 10 mM Glycine, pH1.5 for 30 seconds. The sensorgrams were analyzed using MASS-1 software (AnalyserR2, version 0.1.6.5).

B1: 2G10_LC1.006 (antibody, human IgG1, kappa, N297G, V domains shown)
VH: not shown
VL: EIVMTQSPATLSVSPGERATLSCRASQSVSSNLAWYQQKPGQAPRLLIYGAATRATGIPARVSGSGSGTEFTLTISSLQSEDFAVYYCQQYNNWPLTFGGGTKVEIKR
notes: also called iPS:361192; iPS:361194
The term koff denotes a measure of how fast the partners let go of each other. Higher therefore signals a short-lived complex. As for B1, the koff with huGIPR ECD worked out at 0.001 s⁻¹. The “Rhesus GIPR CAMP Assay (Conc. mAb @ 60% Inhibition in nM)” value with Rhesus GIPR was 0.52 nM. For the same molecule, the “Hu GIPR CAMP Assay (Conc. mAb @ 60% Inhibition in nM)” value in test [1] was determined as 1.04 nM.

For the origin of these results see patent US20250376529A1 (Amgen, published 2025).
